Reference: patent US20230111363A1

Key:
[1] = molecular target: human FcγRI (CD64) extracellular domain (human) (UniProt P12314); assay: SPR (Biacore T100), antibody captured on Protein A, FcγR ECD as analyte, 25 C
[2] = molecular target: human FcγRIIA_131H (CD32a) extracellular domain (human) (UniProt P12318); assay: SPR (Biacore T100), antibody captured on Protein A, FcγR ECD as analyte, steady state, 25 C
[3] = molecular target: human FcγRIIA_131R (CD32a) extracellular domain (human) (UniProt P12318); assay: as above
[4] = molecular target: human FcγRIIIA_F158 (CD16a) extracellular domain (human) (UniProt P08637); assay: as above
[5] = molecular target: human FcγRIIb (CD32b) extracellular domain (human) (UniProt P31994); assay: as above
Sequence of human FcγRIIb (CD32b) extracellular domain (human) (P31994 43-217): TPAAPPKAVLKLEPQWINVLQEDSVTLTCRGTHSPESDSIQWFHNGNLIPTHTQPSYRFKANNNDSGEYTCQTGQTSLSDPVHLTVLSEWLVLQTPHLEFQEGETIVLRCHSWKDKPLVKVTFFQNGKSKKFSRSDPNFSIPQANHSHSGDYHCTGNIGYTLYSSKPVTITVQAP

Sequence of human FcγRIIA_131R (CD32a) extracellular domain (human) (P12318 34-217 H167R): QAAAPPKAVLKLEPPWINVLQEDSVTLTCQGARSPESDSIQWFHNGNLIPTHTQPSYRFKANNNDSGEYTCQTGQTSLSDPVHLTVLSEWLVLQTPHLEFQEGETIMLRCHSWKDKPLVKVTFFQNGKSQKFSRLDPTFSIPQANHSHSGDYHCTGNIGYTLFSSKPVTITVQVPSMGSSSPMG
Sequence of human FcγRI (CD64) extracellular domain (human) (P12314 16-292): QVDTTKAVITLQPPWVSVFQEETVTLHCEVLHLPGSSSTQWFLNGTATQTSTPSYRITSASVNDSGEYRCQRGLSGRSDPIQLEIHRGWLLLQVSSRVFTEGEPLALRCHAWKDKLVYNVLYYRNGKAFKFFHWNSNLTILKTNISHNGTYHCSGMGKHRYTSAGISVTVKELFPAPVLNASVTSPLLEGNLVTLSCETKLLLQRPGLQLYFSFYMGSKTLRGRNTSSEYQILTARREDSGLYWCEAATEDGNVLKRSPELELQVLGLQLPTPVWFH
Sequence of human FcγRIIIA_F158 (CD16a) extracellular domain (human) (P08637 17-208): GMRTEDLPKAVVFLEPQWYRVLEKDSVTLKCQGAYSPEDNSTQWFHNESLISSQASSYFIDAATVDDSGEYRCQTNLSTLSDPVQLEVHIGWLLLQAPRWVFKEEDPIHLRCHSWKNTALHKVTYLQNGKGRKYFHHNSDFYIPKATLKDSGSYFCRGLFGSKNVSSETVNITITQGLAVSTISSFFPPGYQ
Sequence of human FcγRIIA_131H (CD32a) extracellular domain (human) (P12318 34-217): as the sequence (P12318 34-217 H167R) above, with R134H counted along it

Kd [1]: 0.0426 nM
Kd [2]: 500 nM
Kd [3]: 500 nM
Kd [4]: 900 nM
Kd [5]: 1900 nM
Substance: Human WT IgG1 Fc (antibody)
